Test results as given in patent publication US20250388643A1, “GLUCAGON-LIKE PEPTIDE-2 COMPOSITIONS AND METHODS OF MAKING AND USING SAME” (Amunix Pharmaceuticals, Inc., priority 2011, published 2025).

B1: GLP2-2G-XTEN_AE864 fusion protein (ligand)
chain: HGDGSFSDEMNTILDNLAARDFINWLIQTKITDGGSPAGSPTSTEEGTSESATPESGPGTSTEPSEGSAPGSPAGSPTSTEEGTSTEPSEGSAPGTSTEPSEGSAPGTSESATPESGPGSEPATSGSETPGSEPATSGSETPGSPAGSPTSTEEGTSESATPESGPGTSTEPSEGSAPGTSTEPSEGSAPGSPAGSPTSTEEGTSTEPSEGSAPGTSTEPSEGSAPGTSESATPESGPGTSTEPSEGSAPGTSESATPESGPGSEPATSGSETPGTSTEPSEGSAPGTSTEPSEGSAPGTSESATPESGPGTSESATPESGPGSPAGSPTSTEEGTSESATPESGPGSEPATSGSETPGTSESATPESGPGTSTEPSEGSAPGTSTEPSEGSAPGTSTEPSEGSAPGTSTEPSEGSAPGTSTEPSEGSAPGTSTEPSEGSAPGSPAGSPTSTEEGTSTEPSEGSAPGTSESATPESGPGSEPATSGSETPGTSESATPESGPGSEPATSGSETPGTSESATPESGPGTSTEPSEGSAPGTSESATPESGPGSPAGSPTSTEEGSPAGSPTSTEEGSPAGSPTSTEEGTSESATPESGPGTSTEPSEGSAPGTSESATPESGPGSEPATSGSETPGTSESATPESGPGSEPATSGSETPGTSESATPESGPGTSTEPSEGSAPGSPAGSPTSTEEGTSESATPESGPGSEPATSGSETPGTSESATPESGPGSPAGSPTSTEEGSPAGSPTSTEEGTSTEPSEGSAPGTSESATPESGPGTSESATPESGPGTSESATPESGPGSEPATSGSETPGSEPATSGSETPGSPAGSPTSTEEGTSTEPSEGSAPGTSTEPSEGSAPGSEPATSGSETPGTSESATPESGPGTSTEPSEGSAPG
B2: Glucagon-Y288: glucagon fused to unstructured polypeptide Y288 (protein)
chain: HSQGTFTSDYSKYLDSRRAQDFVQWLMNTGGEGSGEGSEGEGSEGSGEGEGSEGSGEGEGGSEGSEGEGGSEGSEGEGGSEGSEGEGSGEGSEGEGGSEGSEGEGSGEGSEGEGSEGGSEGEGGSEGSEGEGSGEGSEGEGGEGGSEGEGSEGSGEGEGSGEGSEGEGSEGSGEGEGSGEGSEGEGSEGSGEGEGSEGSGEGEGGSEGSEGEGSEGSGEGEGGEGSGEGEGSGEGSEGEGGGEGSEGEGSGEGGEGEGSEGGSEGEGGSEGGEGEGSEGSGEGEGSEGGSEGEGSEGGSEGEGSEGSGEGEGSEGSGE

Experiments:
[1] = target: T1, GLP-2 receptor (GLP2 G-protein coupled receptor) on transfected GLP2R cell line (Millipore, Cat #HTS164C) (human, UniProt O95838 1-553); experiment: cell-based or functional assay
T1 sequence (looked up): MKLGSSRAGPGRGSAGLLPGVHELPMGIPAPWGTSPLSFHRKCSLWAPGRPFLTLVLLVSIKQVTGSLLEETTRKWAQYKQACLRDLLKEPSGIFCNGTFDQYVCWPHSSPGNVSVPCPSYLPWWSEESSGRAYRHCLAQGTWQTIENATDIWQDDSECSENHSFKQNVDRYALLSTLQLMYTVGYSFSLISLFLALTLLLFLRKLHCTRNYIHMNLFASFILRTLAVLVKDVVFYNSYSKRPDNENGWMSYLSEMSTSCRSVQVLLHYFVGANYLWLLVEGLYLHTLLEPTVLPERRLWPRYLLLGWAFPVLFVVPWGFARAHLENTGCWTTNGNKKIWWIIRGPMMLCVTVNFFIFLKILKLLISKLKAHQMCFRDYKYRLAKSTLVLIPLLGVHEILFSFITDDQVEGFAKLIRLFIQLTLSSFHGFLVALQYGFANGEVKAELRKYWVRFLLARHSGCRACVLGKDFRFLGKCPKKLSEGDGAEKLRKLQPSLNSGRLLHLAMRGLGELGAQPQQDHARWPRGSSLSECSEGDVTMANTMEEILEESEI

[2] = Analytical size exclusion chromatography of XTEN fusion proteins with diverse payloads; assay type: physicochemical; details: SEC
Procedure: Size exclusion chromatography analyses were performed on fusion proteins containing various therapeutic proteins and unstructured recombinant proteins of increasing length. […] Chromatogram profiles were monitored using OD214 nm and OD280 nm. Column calibration for all assays were performed using a size exclusion calibration standard from BioRad; the markers include thyroglobulin (670 kDa), bovine gamma-globulin (158 kDa), chicken ovalbumin (44 kDa), equine myoglobuin (17 kDa) and vitamin B12 (1.35 kDa). […] Based on the SEC analyses for all constructs evaluated, the apparent molecular weights, the apparent molecular weight factor (expressed as the ratio of apparent molecular weight to the calculated molecular weight) and the hydrodynamic radius (RH in nm) are shown in Table 23. […] Accordingly, it is expected that fusion proteins comprising growth and XTEN have reduced renal clearance, contributing to increased terminal half-life and improving the therapeutic or biologic effect relative to a corresponding un-fused biologic payload protein.

Row | Molecule | EC50 (calcium flux, FLIPR TETRA, GLP2R cell line) [1] [nM] | potency relative to GLP2-2G (calcium flux, GLP2R cell line) [1] [%] | hydrodynamic radius [2] [nm]
1 | B1 | 370 | ~2 | –
2 | B2 | – | – | ≥ 7
